{"source": "patent US20240294622A1", "key": {"[1]": {"biological_target": "hGREM1 (source and construct not stated) (human) (UniProt O60565)", "sequence (O60565 25-184 limits assumed)": "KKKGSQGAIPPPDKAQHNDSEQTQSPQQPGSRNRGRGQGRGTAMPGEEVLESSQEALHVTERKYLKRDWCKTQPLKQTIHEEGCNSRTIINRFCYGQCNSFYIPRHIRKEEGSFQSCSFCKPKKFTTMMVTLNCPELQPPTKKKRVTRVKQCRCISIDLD", "test": "ELISA on hGREM1"}, "[2]": {"biological_target": "HGREM1-His (ACRO) (human) (UniProt O60565)", "sequence (O60565 25-184)": "as the sequence (O60565 25-184 limits assumed) above", "test": "ELISA, binding to hGremlin-his"}, "[3]": {"biological_target": "HGREM1-His (ACRO) (human) (UniProt O60565)", "test": "competition ELISA, Gremlin-his binding to coated BMP7"}, "[4]": {"biological_target": "HGREM1-His (ACRO) (human) (UniProt O60565)", "test": "blocking ELISA, Human Gremlin-1 binding to BMP2; column OD450"}, "[5]": {"biological_target": "HGREM1-His (ACRO) (human) (UniProt O60565)", "test": "blocking ELISA, Human Gremlin-1 binding to BMP4; column OD450"}, "[6]": {"biological_target": "HGREM1-His (ACRO) (human) (UniProt O60565)", "test": "blocking ELISA, Human Gremlin-1 binding to BMP7; column OD450"}, "[7]": {"biological_target": "HGREM1-His (ACRO) (human) (UniProt O60565)", "test": "blocking ELISA, Human Gremlin-1 binding to BMP2; column Percentage"}, "[8]": {"biological_target": "HGREM1-His (ACRO) (human) (UniProt O60565)", "test": "blocking ELISA, Human Gremlin-1 binding to BMP4; column Percentage"}, "[9]": {"biological_target": "HGREM1-His (ACRO) (human) (UniProt O60565)", "test": "blocking ELISA, Human Gremlin-1 binding to BMP7; column Percentage"}, "[10]": {"biological_target": "HGREM1-His (ACRO) (human) (UniProt O60565)", "test": "Fortebio: Gremlin-his loaded (2ug/ml) on the sensor, antibody at 100, 50 and 25 nM"}, "[11]": {"biological_target": "HGREM1-His (ACRO) (human) (UniProt O60565)", "test": "Fortebio: Gremlin-his loaded (2ug/ml), antibody at 25 nM; unit from the axis of the sensorgram"}, "[12]": {"biological_target": "HGREM1-His (ACRO) (human) (UniProt O60565)", "test": "Fortebio: Gremlin-his loaded (2ug/ml), antibody at 50 nM; unit from the axis of the sensorgram"}, "[13]": {"biological_target": "HGREM1-His (ACRO) (human) (UniProt O60565)", "test": "Fortebio: Gremlin-his loaded (2ug/ml), antibody at 100 nM; unit from the axis of the sensorgram"}, "[14]": {"biological_target": "HGREM1-His (ACRO) (human) (UniProt O60565)", "test": "ELISA: antibody coated, Gremlin-his titrated, anti-his-HRP; the concentration is that of Gremlin-his"}, "[15]": {"biological_target": "HGREM1-His (ACRO) (human) (UniProt O60565)", "test": "Fortebio: Gremlin-his loaded (2ug/ml) on the sensor, antibody at 100, 50 and 25 nM; kdis(1/s)"}}, "data": [{"binder": "benchmark antibody 6245P (antibody, from another filing, V domains shown) VH: EVQLVESGGGLVQPGGSLRLSCAASGFTFNSFWMSWVRQAPGKGLEWVANIKQDGSEKYYVDSVKGRFTISRDNAKNSVYLQMNSLRAEDTAVYYCARDLVTSFDYWGQGTLVTVSS VL: DIQMTQSPSSLSASVGDRVTITCQASQDINNYLNWYQQKPGKAPKLLIYDASYLETGVPSGFSGSGSGTDFTFTISSLQPEDIATYYCQQYDSLPYTFGQGTKLEIK", "values": [{"measurement": "EC50", "setting": "[1]", "result": 0.115, "unit": "µg/mL"}, {"measurement": "EC50", "setting": "[2]", "result": 0.0575, "unit": "µg/mL"}, {"measurement": "maximal blocking percentage", "setting": "[3]", "result": "< 30", "unit": "%"}, {"measurement": "IC50", "setting": "[4]", "result": 0.797, "unit": "µg/mL"}, {"measurement": "IC50", "setting": "[5]", "result": 0.638, "unit": "µg/mL"}, {"measurement": "IC50", "setting": "[6]", "result": 0.536, "unit": "µg/mL"}, {"measurement": "IC50", "setting": "[7]", "result": 0.797, "unit": "µg/mL"}, {"measurement": "IC50", "setting": "[8]", "result": 0.638, "unit": "µg/mL"}, {"measurement": "IC50", "setting": "[9]", "result": 0.536, "unit": "µg/mL"}, {"measurement": "Kd", "setting": "[10]", "result": 2.58, "unit": "nM"}, {"measurement": "kon", "setting": "[10]", "result": 338000, "unit": "M⁻¹ s⁻¹"}, {"measurement": "Response", "setting": "[11]", "result": 0.313, "unit": "nm"}, {"measurement": "Response", "setting": "[12]", "result": 0.513, "unit": "nm"}, {"measurement": "Response", "setting": "[13]", "result": 0.649, "unit": "nm"}, {"measurement": "EC50 (read off the curve)", "setting": "[14]", "result": 0.01, "unit": "µg/mL"}, {"measurement": "koff", "setting": "[15]", "result": 0.00087, "unit": "s⁻¹"}]}]}
